Source: the DeepSol protein solubility set

Test: soluble on expression in E. coli; label from the status in PepcDB or PDB records

Sequence | soluble on expression in E. coli
GPGSMGNGCCGCCDAKPDYKLGRPLVSGKTTPCFNDGRLFKIVKGDIWYFYNDTQDYQMKVTADFGNGSNIVAMSDTELVRKNDSGACTATVSVFPLETKAMVQTKEVNGFNVKYSGIAFTDADRQKLRQKAAAQVSADLAEMRKLRERNPKVNNQNRLLKVARGKGKMYVDTSFPPTSQSLIRSGIDSDPDACLKRPETIAWRRPEDFLPKKWHPKIRLFGNISPKDISQGQLGDCYYLCALAALAEHDAAIKGIFKNHHGCCIRSQERKHGAWRVNLNISGWWRTIIIDSYLPTVQLLPVFARNRNHPNELWVSFAEKAYAKVFGSYQAIVAGYPWQALEDLTGFPAYNFGNMWRTAQTDTETRKKLFDSLHRWNKKYLICIATPSNGALKMAGKQLSANQWEALFEKAGLRIGHAYSVLDVRHFPLHRLCMLKIRNPWGSHVEWSGDWGDDSPLWNRYPFIKLACRPEKKADGIFWMEWRDVSKFFDSGSVCFRRGHWFRSWYDYRVLGSFEDLVCDTALLIIVNKTSQFPAYISLHQKDCRGLATSDPDSKYACVMISISEGDINGSQQKVVANSSENPEEPSTEYLFQESRSVSLYYKFTKGHKYLVIPRRMKSSTGNNVPKKKYVIALRTQTKVSSEDVVVNIVRLDKNNAVFKNVASFDAGTPTSLNTLYQIKDGNNVFRTYRSDNLRKGKKQHNAEFELVM | not soluble
MGSDKIHHHHHHMAMTTEFANEITDVAKAIYEYAELGSSEYKSSSYLVEAFKRHGFQVDFPYLGMKTAFKARYFNGKPMVGLLAEYDALPNGHSCGHDLIAAWAFGTAIRLKDEFGISVTVFGTPSEEGIGEYAGSKAKFAQSGAFSDVDYVIGMHPDDRWAVGSTSLADLTIEAQFIGKSSHLLSPDYGINALDPLVESYVALSNFRRSVPNSKYPVIGMIVKEGGRASNVIPDKASMEIDIRAKKKADLAGFVDQIERILKMEGEMHYCKLNINEVTPIYDEYKSNRVIDSLLEEECQKHAVNPFNVDRSGEEPMGSTDEANVSQVIPTGHLDVKIVDPGIPAHTDEFRIAADPSRSGKTLLKAIDITVETIKTIWQDKKFMNKIKEEFKK | not soluble
MDICDISASQLATSPPPRTAIDFNSSIEESPVKRVKFSPELTKSFEETLSPTVTLVLRNNEEVIFDRYLLSFYSNYFRVLFSSKFRDSNSTTHRIRLISASDLHFLLTIPKAFEQGIKPNITLQKAIELLEPAAFLQMSIALDYISDIICKNLTHENIIKIFRLALLYHTTLAVRVWRSMVRKFQTLFATNVYLSLKENELIGLLTDKHLNLKSEDETTVVVNWIKHNSPLQSDRLTQFAQRNFSRRPQPDATKYEVIRTRQPMDAIVCFGGWASRGVAQKIEVCNTRSDRWQTCNFNYDIPNIHRAYHGIEVVEDKLIVYGGFDGIKQFQTTVLFDLSTKEWRRGANMNDKRCYVTSARVNDSYGRPLVFACGGMNGVSRLKTAEMYDYRADQWTEVANMTQMRSDGAVVTIDNKIVAIGGFDGRNIHQGGEVYDPVLDLWHPLSSNMRTRRTGCTAVSIMNQVCMIIGGFNGNRRLDSAEIYDMREGLWHPEPTLQTARSNFSACQMDTCYVYVAGGFDGQTTTKESERLDLRSKMWQALPDMAEAKSALRMVTLSDHPFLDELFDIPDDTGIVTSW | not soluble
MVVYDCLTDEDFLQKSEHGIGKKAIYYFYGERCPSCESIKPLFDDLCKKYEKTALVYTYPCYNDDQLTGDAFAVNAVPTFVVMNNGEEVTRHVGAEAEKVQELFEKYAV | not soluble
MGSDKIHHHHHHMDSLLFGISGLPNRNSNKKFTYKTGIEYLREIGLDAMELPFVRSVNITDKNKNEVLDTKLKNDFYLSAHGSYFINLNADEEEKIEKSLERIIKGAEGLKKVQGKSLIFHPGFYLKDSKEETFETIKENLLRLPDLGVDYRLETTGKGTQFGSLEENVALCKAVDTCKLCIDFSHIHARYNGSLKSYDDFARILNYVGNELGDEGLNDMHIHLSGINYTAKGERNHLPFEESDFNYKDCLKAFRDFDIKGCVICESPVLEHDALLLKNYYETL | not soluble
MGSDKIHHHHHHMKKVERINTIMRYINNRSHFTISEIIREFNISRSTAIRDIREIEAMGMPLVAEVGRSGGYFVMHNSILPVVRFTDNEVKALFIAFMATRNQQLPYLKSRQSLAEKLLGLISETQQDDLVLLNQLLLFEGTNPHNPDLLELSDLPHPMLEKLIQILLLDRYLLITVKEEIKSYPIYLLHLYKEKSYWIIEGFDLKEEKKLMFPVDDLINIEPYTPKKRLHKKQILERLSKKDEAINLVFELGPKAIAQFKKYHPFKVSISYTNPYQSTAILKTFIDVHNSDEVTEMTNWLLFLGKDITIKEMPEEVLKDLQERLCLYTP | not soluble
MKVVAFNGSPRRDGNTSILIDKVLNELKKEGITTEHIHIAGGKLRGCTACYKCFETLNNKCIIECDIINNCIEKMIEADGIILGSPTYFTDVTAEMKALIDRAGFVAKANDDILKRKVGAAVVSVRRAGGVHVFDTLNHFFSINQMISVGSDYWNLGMGLDIGDVQKDAEGLHTMELLGQNMAWILKKINELEHHHHHH | not soluble
MDTPNKDDSIIRFSVSLQQNLLDELDNRIIKNGYSSRSELVRDMIREKLVEDNWAEDNPNDESKIAVLVVIYDGGQRELNQRMIDIQHASGTHVLCTTHIHMDEHNCLETIILQGNSFEIQRLQLEIGGLRGVKFAKLTKASSFEYNE | soluble
MPTLIVLIGPTGVGKTELSLRLAENFHTSIVSADSRQLYAELKIGTAAPTPDQLKRVPHYLVGTLHLTDYYSAAQYEQEAMEILHQLFTEHEVVVLTGGSMMYVDAICKGIDDIPTVDAETRQVMLQKYEEEGLEQLCAELRLLDPDYYRIVDLKNPKRVIHALEICYMTGKTYTSFRTQQKKERPFRILKIGLTRDREELYDRINRRVDQMMEEGLLDEVRSVLSYRHLNSLNTVGYKELFKYLDGEWELPFAIEKIKQNSRIYSRKQMTWFKRDEEIRWFHPEQETEILEYLRLQNLTHLPSLDTFLEHHHHHH | soluble
MTKVQKRLFEVADKQYALFQAKLIPNIPQERVIGVRVPVLRKIAREFEKEPECRDFLNTLPHAYYDENMLHSILLSNVKNYEECIAAVEAFLPYVDNWAVCDTLRPKVFGKHKDKLLPRIKDWIASDKTYTCRFGIGMLMMHYLDKDFKPEYLELPQKVDSEEYYVKMMIAWFYATALANQWDATIPYIEEHRLSDWVHKKTIQKACESYRITDEQKAYLKTLR | not soluble
MAPLETIYDESLNKSADSIDDKKWSKLFPRIVSDPDRSSNFMTRAIYVAFSAVLRNRNILGQEYFTKNYITEKLKCMTLCFRNPRSNQIAQLLRNAGDATKDGFLKEVSLVITNNEGDLEAIEVFSMKFIYFENGGVVARLSTDKNGQEDPHFAKLAQLVYEGGDSVRDQMVTIVRSVQFLCTKVLEPLPEEFTANFRLEYTNDAPSNFRIDGFEDSSTFYTLPDDIQSATIGHLRPGCHAANMECWSMLMSDSYEAELTLKRHLDKVSDRHGFNPVNVLYKSFNSEDSDTSLSQATTESVNDQGGNETSPVDDITESLEKAQMSPIQTRPTTRRGADGSKTRSSPYSRSCK | not soluble
MSSEAVDATTLVIIPTYNELENLPLIVDRVRTATPDVHVLIVDDNSPDGTGERADKLAADDDHIFVLHREGKGGLCAAYMAGFQWGLERDYQVLCEMDADGSHAPEQLHLLLAEITNGADLVIGSRYVPGGRVVNWPKNRWLLSKGGNVYISVALGAGLTDMTAGYRAFRREVLEALPLDELSNAGYIFQVEIAYRAVEAGFDVREVPITFTEREIGESKLDGSFVKDSLLEVTKWGLKHRGGQAKELSKEMVGLLNYEWKHFKKRNTWLLEHHHHHH | not soluble
MTGTVSRRKKIAMIGSGMIGGTMGYLCVLRELADVVLFDVVTGMPEGKALDDSQATSIADTNVSVTSANQYEKIAGSDVVIITAGLTKVPGKSDKEWSRNDLLPFNAKIIREVAQGVKKYCPLAFVIVVTNPLDCMVKCFHEASGLPKNMVCGMANVLDSARFRRFIADQLEISPRDIQATVIGTHGDHMLPLARYVTVNGFPLREFIKKGKMTEAKLAEIVERTKKAGGEIVRLLGQGSAYYAPALSAITMAQAFLKDEKRVLPCSVYCQGEYGLHDMFIGLPAVIGGGGIEQVIELELTHEEQECFRKSVDDVVELNKSLAALGPG | soluble
DPGERLYDLNMPAYVKFNYMAEREDELSLIKGTKVIVMEKCSDGWWRGSYNGQVGWFPSNYVTEEGDSPLGDHVG | soluble
MTETATARRSRITPEREAELYEAVLDLLREVGYDALTMDAVAARTRSSKATLYRQWGGKPELVVKAIRHNKPGEIGDVDTGSLRGDLHALMVREDDCTMEQNSALMRGVAMALHQNPDLRQAFREQLIEPEMAEFQRVLQRAVDRGEIRADCPALDFLVHMMVGGFATRTLLDDQPPTREFLASYIDAVILPALGVSTH | not soluble
MSLQPPFSILFVDDDEMSRNHFARAMSADYKVYVAQSADEAITVLGKHASEIAVLVTDFRMPGRDGDELLREVAHEYPQIVRILVTAYADKDMLLQTVNTGDVFRIIEKPLRTDMVREVLHLATARYTERETRQQRLLAMDETLAFLAHELNTPLATISLFARSVENDVAEQYDPERQREIGLAAKSMLNNAQYCLTLISSFWATVHKSGGQKSASGGGTRAVRATRLIATLLDTYPFVASQRDWVKVDVEGDFVVHAMPNCVALVLSSLLSNALRALDGGSAPVLRLEVVAFPEPEIRIRDNGPGIAPEVKARLLQDPVTTYAGAGGHGMGMIFCNRIMQSFGGCLRIESTVGAGTTVTMGFPGFNSRMHSADEGHHHHHH | soluble
MHMNAEEIGMALLNGRKELGLRQGELADLAGVSERFIRDVEKGKTTVRLDKVIDVLRVLGLELSVGIHDPLKVNQ | not soluble
MDAEPKRKFGVVVVGVGRAGSVRLRDLKDPRSAAFLNLIGFVSRRELGSLDEVRQISLEDALRSQEIDVAYICSESSSHEDYIRQFLQAGKHVLVEYPMTLSFAAAQELWELAAQKGRVLHEEHVELLMEEFEFLRREVLGKELLKGSLRFTASPLEEERFGFPAFSGISRLTWLVSLFGELSLISATLEERKEDQYMKMTVQLETQNKGLLSWIEEKGPGLKRNRYVNFQFTSGSLEEVPSVGVNKNIFLKDQDIFVQKLLDQVSAEDLAAEKKRIMHCLGLASDIQKLCHQKK | soluble
TELTKCKVSHAIKDIDGYQGISLLEWACVLFHTSGYDTQAVVNDNGSTEYGLFQISDRFWCKSSEFPESENICGISCDKLLDDELDDDIACAKKILAIKGIDYWKAYKPMCSEKLEQWRCEKP | soluble
MVYDLIVIGGGSGGMAAARRAARHNAKVALVEKSRLGGTCVNVGCVPKKIMFNAASVHDILENSRHYGFDTKFSFNLPLLVERRDKYIQRLNNIYRQNLSKDKVDLYEGTASFLSENRILIKGTKDNNNKDNGPLNEEILEGRNILIAVGNKPVFPPVKGIENTISSDEFFNIKESKKIGIVGSGYIAVELINVIKRLGIDSYIFARGNRILRKFDESVINVLENDMKKNNINIVTFADVVEIKKVSDKNLSIHLSDGRIYEHFDHVIYCVGRSPDTENLKLEKLNVETNNNYIVVDENQRTSVNNIYAVGDCCMVKKSKEIEDLNLLKLYNEERYLNKKENVTEDIFYNVQLTPVAINAGRLLADRLFLKKTRKTNYKLIPTVIFSHPPIGTIGLSEEAAIQIYGKENVKIYESKFTNLFFSVYDIEPELKEKTYLKLVCVGKDELIKGLHIIGLNADEIVQGFAVALKMNATKKDFDETIPIHPTAAEEFLTLQPWMK | soluble
